Literature values in PMC6263114.

Target: transferrin receptor (TfR) (Homo sapiens) (UniProt P02786)
Sequence (P02786 89-760): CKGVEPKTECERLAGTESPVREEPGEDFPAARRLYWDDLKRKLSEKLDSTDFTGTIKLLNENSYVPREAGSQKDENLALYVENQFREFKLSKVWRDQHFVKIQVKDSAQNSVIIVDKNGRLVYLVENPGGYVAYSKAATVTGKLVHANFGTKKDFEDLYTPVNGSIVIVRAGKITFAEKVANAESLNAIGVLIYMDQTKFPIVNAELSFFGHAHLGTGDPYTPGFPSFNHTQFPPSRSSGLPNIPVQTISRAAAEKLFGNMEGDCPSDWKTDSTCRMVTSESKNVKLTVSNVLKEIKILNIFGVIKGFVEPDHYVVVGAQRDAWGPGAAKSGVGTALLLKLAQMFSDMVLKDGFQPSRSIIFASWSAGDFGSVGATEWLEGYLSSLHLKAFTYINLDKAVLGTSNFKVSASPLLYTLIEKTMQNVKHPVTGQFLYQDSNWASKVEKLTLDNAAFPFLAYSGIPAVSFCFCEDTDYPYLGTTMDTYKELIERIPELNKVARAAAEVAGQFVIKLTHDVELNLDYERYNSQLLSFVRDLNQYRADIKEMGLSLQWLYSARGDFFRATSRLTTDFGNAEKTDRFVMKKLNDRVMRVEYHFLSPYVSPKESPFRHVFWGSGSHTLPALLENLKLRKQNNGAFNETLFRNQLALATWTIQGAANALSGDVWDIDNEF

Kd: 10 nM
Substance: T7 peptide
